Assays:
GorA = molecular target: T1, GorA (Escherichia coli, UniProt P06715); test: Te0 formation, non-linear fit; type: biochemical; conditions: 1 mM NADPH, 1 mM beta-mercaptoethanol, pH 9, 37 °C; substrate inhibition
T1 construct: gene gor; His-tagged full-length, ASKA clone, HisTrap purified, ~49 kDa

TrxB = molecular target: T2, TrxB (Escherichia coli, UniProt P0A9P4); test: Te0 formation, non-linear fit; type: biochemical; conditions: 1 mM NADPH, 1 mM beta-mercaptoethanol, pH 10, 37 °C; substrate inhibition
T2 construct: His-tagged full-length, ASKA clone, HisTrap purified, ~35 kDa

E3 = molecular target: T3, E3 (Escherichia coli, UniProt P0A9P0); test: Te0 formation, non-linear fit; type: biochemical; conditions: 1 mM NADPH, 1 mM beta-mercaptoethanol, pH 6, 37 °C; substrate inhibition
T3 construct: gene lpdA; His-tagged full-length, ASKA clone, HisTrap purified, ~56 kDa

O=[Te](O)O = test: purified protein; type: biochemical, Escherichia coli; conditions: 1 mM beta-mercaptoethanol

T2 sequence (P0A9P4 2-321): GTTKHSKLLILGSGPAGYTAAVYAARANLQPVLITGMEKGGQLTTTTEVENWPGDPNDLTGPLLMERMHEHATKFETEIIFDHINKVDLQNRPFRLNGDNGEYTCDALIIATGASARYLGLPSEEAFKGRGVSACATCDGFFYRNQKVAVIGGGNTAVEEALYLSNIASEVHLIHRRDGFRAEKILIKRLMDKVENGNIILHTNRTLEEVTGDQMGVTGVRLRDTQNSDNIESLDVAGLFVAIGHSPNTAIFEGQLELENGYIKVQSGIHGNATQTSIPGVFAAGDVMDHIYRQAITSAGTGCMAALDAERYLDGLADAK
T1 sequence (P06715 whole entry): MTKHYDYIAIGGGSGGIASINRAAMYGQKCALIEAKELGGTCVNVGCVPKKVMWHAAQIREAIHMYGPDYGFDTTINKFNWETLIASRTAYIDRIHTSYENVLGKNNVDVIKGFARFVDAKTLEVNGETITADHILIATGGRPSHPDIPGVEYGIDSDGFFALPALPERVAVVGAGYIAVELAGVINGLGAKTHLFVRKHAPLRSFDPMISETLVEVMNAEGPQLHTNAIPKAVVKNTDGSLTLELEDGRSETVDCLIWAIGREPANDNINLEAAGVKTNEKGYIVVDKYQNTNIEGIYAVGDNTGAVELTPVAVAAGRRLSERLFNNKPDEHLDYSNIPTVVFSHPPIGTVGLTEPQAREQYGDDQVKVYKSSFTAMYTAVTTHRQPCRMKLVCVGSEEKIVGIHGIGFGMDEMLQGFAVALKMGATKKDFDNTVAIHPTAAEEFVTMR
T3 sequence (P0A9P0 2-474): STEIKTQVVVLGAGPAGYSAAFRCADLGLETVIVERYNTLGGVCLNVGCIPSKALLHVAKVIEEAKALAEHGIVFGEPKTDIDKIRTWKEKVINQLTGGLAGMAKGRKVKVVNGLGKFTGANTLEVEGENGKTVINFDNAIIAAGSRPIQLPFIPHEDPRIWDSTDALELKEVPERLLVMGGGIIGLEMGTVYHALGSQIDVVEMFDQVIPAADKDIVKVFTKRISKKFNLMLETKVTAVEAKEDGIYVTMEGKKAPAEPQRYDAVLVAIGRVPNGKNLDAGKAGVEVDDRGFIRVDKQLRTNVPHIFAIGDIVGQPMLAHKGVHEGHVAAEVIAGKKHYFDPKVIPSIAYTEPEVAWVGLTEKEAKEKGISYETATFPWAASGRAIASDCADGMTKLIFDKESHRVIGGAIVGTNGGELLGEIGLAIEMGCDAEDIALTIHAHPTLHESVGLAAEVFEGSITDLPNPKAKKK

O=[Te](O)O [tellurite]
Ki apparent (GorA): 232.7 µM
Ki apparent (TrxB): 37.13 µM
Ki apparent (E3): 63.01 µM

AhpF (Escherichia coli K-12)
Km (O=[Te](O)O; 1 mM NADH, pH 10, 37 °C): 819.6 µM
Vmax (O=[Te](O)O; 1 mM NADH, pH 10, 37 °C): 77900 µmol/min/mg

E3 (Escherichia coli K-12)
Km (O=[Te](O)O; 1 mM NADPH, pH 6, 37 °C): 47.94 µM
Vmax (O=[Te](O)O; 1 mM NADPH, pH 6, 37 °C): 84.5 µmol/min/mg

GorA (Escherichia coli K-12)
Km (O=[Te](O)O; 1 mM NADPH, pH 9, 37 °C): 89.47 µM
Vmax (O=[Te](O)O; 1 mM NADPH, pH 9, 37 °C): 6310 µmol/min/mg

NorW (Escherichia coli K-12)
Km (O=[Te](O)O; 1 mM NADH, pH 11, 42 °C): 694.9 µM
Vmax (O=[Te](O)O; 1 mM NADH, pH 11, 42 °C): 5350 µmol/min/mg

TrxB (Escherichia coli K-12)
Km (O=[Te](O)O; 1 mM NADPH, pH 10, 37 °C): 114.5 µM
Vmax (O=[Te](O)O; 1 mM NADPH, pH 10, 37 °C): 9590 µmol/min/mg

YkgC (Escherichia coli K-12)
Km (O=[Te](O)O; 1 mM NADH, pH 9, 37 °C): 517.1 µM
Vmax (O=[Te](O)O; 1 mM NADH, pH 9, 37 °C): 2700 µmol/min/mg

Source: publication PMC4960239, “Flavoprotein-Mediated Tellurite Reduction: Structural Basis and Applications to the Synthesis of Tellurium-Containing Nanostructures” (Frontiers in Microbiology, 2016)
